Laboratory results as given in patent US20220135638A1 (Takeda / Millennium, published 2022).
Numbered stars: 1 amine (or outer) side, 2 acyl side, 3 side chain; on linkers, the order of the positions; unused ones are H or OH. Square brackets hold non-standard residues; d marks the D form. Primed or numbered codes have the meaning given here. Side chains are listed from the residue outwards. Ends that are not written are not given here. * marks the point of attachment. C20 diacid = O=C(O)CCCCCCCCCCCCCCCCCCC(=O)*; C18 diacid = O=C(O)CCCCCCCCCCCCCCCCC(=O)*; C16 diacid = O=C(O)CCCCCCCCCCCCCCC(=O)*; γGlu = O=C(O)[C@H](CCC(=O)[*:2])N[*:1]; Iva = CC[C@](C)(N)C(=O)O; PEG3′ = not defined here; Abu = CC[C@H](N)C(=O)O; Aib = CC(C)(N)C(=O)O

B1: Compound No. 547 (peptide)
peptide: Y[Aib]EGTFISDYSIALDR[Aib]HQ[Aib]NFVNW[Iva]LAQRK([γGlu-γGlu-C18 diacid])SSGAPPPS
modifications: ends and bridges not checked
B2: Compound No. 537 (peptide)
peptide: Y[Aib]EGTFISDYSIALDR[Aib]HQ[Aib]NFVNW[Iva]LAQRK([Abu-γGlu-C18 diacid])SSGAPPPS
modifications: ends and bridges not checked
B3: Compound No. 552 (peptide)
peptide: Y[Aib]EGTFISDYSIALDR[Aib]HQ[Aib]NFVNW[Iva]LAQRPSSGAK([γGlu-γGlu-C18 diacid])PPS
modifications: ends and bridges not checked
B4: Compound No 892 (peptide)
peptide: Y[Aib]EGTFISDYSIALDR[Aib]HQ[Aib]NFVNW[Iva]LAQRPK([PEG3′-PEG3′-C16 diacid])SGAPPPSR
modifications: ends and bridges not checked
B5: Compound No. 550 (peptide)
peptide: Y[Aib]EGTFISDYSIALDR[Aib]HQ[Aib]NFVNW[Iva]LAQRPSSK([γGlu-γGlu-C18 diacid])APPPS
modifications: ends and bridges not checked
B6: Compound No. 533 (peptide)
peptide: Y[Aib]EGTFISDYSIALDR[Aib]HQ[Aib]NFVNW[Iva]LAQRPSSGAPPPK([PEG3′-γGlu-C16 diacid])
modifications: ends and bridges not checked
B7: Compound No. 548 (peptide)
peptide: Y[Aib]EGTFISDYSIALDR[Aib]HQ[Aib]NFVNW[Iva]LAQRPK([γGlu-γGlu-C18 diacid])SGAPPPS
modifications: ends and bridges not checked
B8: Compound No. 555 (peptide)
peptide: Y[Aib]EGTFISDYSIALDR[Aib]HQ[Aib]NFVNW[Iva]LAQRPSSGAPPPK([γGlu-γGlu-C18 diacid])
modifications: ends and bridges not checked
B9: Compound No. 549 (peptide)
peptide: Y[Aib]EGTFISDYSIALDR[Aib]HQ[Aib]NFVNW[Iva]LAQRPSK([γGlu-γGlu-C18 diacid])GAPPPS
modifications: ends and bridges not checked
B10: Compound No. 551 (peptide)
peptide: Y[Aib]EGTFISDYSIALDR[Aib]HQ[Aib]NFVNW[Iva]LAQRPSSGK([γGlu-γGlu-C18 diacid])PPPS
modifications: ends and bridges not checked
B11: Compound No. 540 (peptide)
peptide: Y[Aib]EGTFISDYSIALDR[Aib]HQ[Aib]NFVNW[Iva]LAQRPSSK([Abu-γGlu-C18 diacid])APPPS
modifications: ends and bridges not checked
B12: Compound No. 554 (peptide)
peptide: Y[Aib]EGTFISDYSIALDR[Aib]HQ[Aib]NFVNW[Iva]LAQRPSSGAPPK([γGlu-γGlu-C18 diacid])S
modifications: ends and bridges not checked
B13: Compound No 912 (peptide)
peptide: Y[Aib]EGTFISDYSIALDR[Aib]HQ[Aib]NFVNW[Iva]LAQRK([PEG3′-PEG3′-C18 diacid])SSGAPPPSR
modifications: ends and bridges not checked
B14: Compound No. 553 (peptide)
peptide: Y[Aib]EGTFISDYSIALDR[Aib]HQ[Aib]NFVNW[Iva]LAQRPSSGAPK([γGlu-γGlu-C18 diacid])PS
modifications: ends and bridges not checked
B15: Compound No. 544 (peptide)
peptide: Y[Aib]EGTFISDYSIALDR[Aib]HQ[Aib]NFVNW[Iva]LAQRPSSGAPPK([Abu-γGlu-C18 diacid])S
modifications: ends and bridges not checked
B16: Compound No. 534 (peptide)
peptide: Y[Aib]EGTFISDYSIALDR[Aib]HQ[Aib]NFVNW[Iva]LAQRPSSGAPPPK([PEG3′-γGlu-C18 diacid])
modifications: ends and bridges not checked
B17: Compound No. 542 (peptide)
peptide: Y[Aib]EGTFISDYSIALDR[Aib]HQ[Aib]NFVNW[Iva]LAQRPSSGAK([Abu-γGlu-C18 diacid])PPS
modifications: ends and bridges not checked
B18: Compound No 911 (peptide)
peptide: Y[Aib]EGTFISDYSIALDR[Aib]HQ[Aib]NFVNW[Iva]LAQRK([PEG3′-PEG3′-C16 diacid])SSGAPPPSR
modifications: ends and bridges not checked
B19: Compound No. 532 (peptide)
peptide: Y[Aib]EGTFISDYSIALDR[Aib]HQ[Aib]NFVNW[Iva]LAQRPSSGAPPK([PEG3′-γGlu-C20 diacid])S
modifications: ends and bridges not checked
B20: Compound No 898 (peptide)
peptide: Y[Aib]EGTFISDYSIALDR[Aib]HQ[Aib]NFVNW[Iva]LAQRPSK([PEG3′-PEG3′-C16 diacid])GAPPPSR
modifications: ends and bridges not checked
B21: Compound No. 535 (peptide)
peptide: Y[Aib]EGTFISDYSIALDR[Aib]HQ[Aib]NFVNW[Iva]LAQRPSSGAPPPK([PEG3′-γGlu-C20 diacid])
modifications: ends and bridges not checked
B22: Compound No. 543 (peptide)
peptide: Y[Aib]EGTFISDYSIALDR[Aib]HQ[Aib]NFVNW[Iva]LAQRPSSGAPK([Abu-γGlu-C18 diacid])PS
modifications: ends and bridges not checked
B23: Compound No. 538 (peptide)
peptide: Y[Aib]EGTFISDYSIALDR[Aib]HQ[Aib]NFVNW[Iva]LAQRPK([Abu-γGlu-C18 diacid])SGAPPPS
modifications: ends and bridges not checked
B24: Compound No 893 (peptide)
peptide: Y[Aib]EGTFISDYSIALDR[Aib]HQ[Aib]NFVNW[Iva]LAQRPK([PEG3′-PEG3′-C18 diacid])SGAPPPSR
modifications: ends and bridges not checked
B25: Compound No. 539 (peptide)
peptide: Y[Aib]EGTFISDYSIALDR[Aib]HQ[Aib]NFVNW[Iva]LAQRPSK([Abu-γGlu-C18 diacid])GAPPPS
modifications: ends and bridges not checked
B26: Compound No 894 (peptide)
peptide: Y[Aib]EGTFISDYSIALDR[Aib]HQ[Aib]NFVNW[Iva]LAQRPK([PEG3′-PEG3′-C20 diacid])SGAPPPSR
modifications: ends and bridges not checked
B27: Compound No. 545 (peptide)
peptide: Y[Aib]EGTFISDYSIALDR[Aib]HQ[Aib]NFVNW[Iva]LAQRPSSGAPPPK([Abu-γGlu-C18 diacid])
modifications: ends and bridges not checked
B28: Compound No. 541 (peptide)
peptide: Y[Aib]EGTFISDYSIALDR[Aib]HQ[Aib]NFVNW[Iva]LAQRPSSGK([Abu-γGlu-C18 diacid])PPPS
modifications: ends and bridges not checked

Target: T1, full-length human GIPR (GenBank NM_000164) with an N-terminal FLAG tag on HEK-293T cells (human), P48546
T1 chain: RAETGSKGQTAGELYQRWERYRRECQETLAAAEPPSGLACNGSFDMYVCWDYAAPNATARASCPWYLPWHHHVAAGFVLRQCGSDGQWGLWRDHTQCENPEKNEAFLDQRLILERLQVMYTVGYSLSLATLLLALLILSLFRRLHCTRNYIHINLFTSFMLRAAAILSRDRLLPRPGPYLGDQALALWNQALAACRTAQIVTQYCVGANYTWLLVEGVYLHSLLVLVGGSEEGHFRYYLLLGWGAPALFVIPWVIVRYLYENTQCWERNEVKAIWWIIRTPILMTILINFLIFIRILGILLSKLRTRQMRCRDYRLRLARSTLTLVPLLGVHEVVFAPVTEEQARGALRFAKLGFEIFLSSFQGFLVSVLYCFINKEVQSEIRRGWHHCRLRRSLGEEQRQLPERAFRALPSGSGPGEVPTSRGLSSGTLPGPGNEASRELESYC
Test: cell-based or functional assay

**Q.** Which GIP EC50(pM) does the source give for B1 here?
**A.** 0.41 pM

**Q.** With B2 as the binder, how does the GIP EC50(pM) read?
**A.** 1.32 pM

**Q.** For B3, which GIP EC50(pM) is on record?
**A.** 1.12 pM

**Q.** Which GIP EC50(pM) does the source give for B4 here?
**A.** 1.7 pM

**Q.** With B5 as the binder, how does the GIP EC50(pM) read?
**A.** 0.83 pM

**Q.** With B6 as the binder, how does the GIP EC50(pM) read?
**A.** 0.59 pM

**Q.** Which GIP EC50(pM) does the source give for B7 here?
**A.** 0.81 pM

**Q.** With B8 as the binder, how does the GIP EC50(pM) read?
**A.** 0.97 pM

**Q.** B9 was tested. Which GIP EC50(pM) did it give?
**A.** 0.85 pM

**Q.** How did the GIP EC50(pM) turn out when B10 was run?
**A.** 0.6 pM

**Q.** B11 was tested. Which GIP EC50(pM) did it give?
**A.** 3.01 pM

**Q.** Which GIP EC50(pM) does the source give for B12 here?
**A.** 0.82 pM

**Q.** Which GIP EC50(pM) does the source give for B13 here?
**A.** 0.7 pM

**Q.** Which GIP EC50(pM) does the source give for B14 here?
**A.** 1.08 pM

**Q.** B15 was tested. Which GIP EC50(pM) did it give?
**A.** 0.94 pM

**Q.** How did the GIP EC50(pM) turn out when B16 was run?
**A.** 0.81 pM

**Q.** For B17, which GIP EC50(pM) is on record?
**A.** 1.21 pM

**Q.** Which GIP EC50(pM) does the source give for B18 here?
**A.** 0.8 pM

**Q.** B19 was tested. Which GIP EC50(pM) did it give?
**A.** 2.05 pM

**Q.** How did the GIP EC50(pM) turn out when B20 was run?
**A.** 0.6 pM

**Q.** For B21, which GIP EC50(pM) is on record?
**A.** 1.54 pM

**Q.** How did the GIP EC50(pM) turn out when B22 was run?
**A.** 0.72 pM

**Q.** How did the GIP EC50(pM) turn out when B23 was run?
**A.** 1.8 pM

**Q.** Which GIP EC50(pM) does the source give for B24 here?
**A.** 2.3 pM

**Q.** With B25 as the binder, how does the GIP EC50(pM) read?
**A.** 2.66 pM

**Q.** Which GIP EC50(pM) does the source give for B26 here?
**A.** 1.9 pM

**Q.** With B27 as the binder, how does the GIP EC50(pM) read?
**A.** 0.43 pM

**Q.** For B28, which GIP EC50(pM) is on record?
**A.** 0.73 pM

Target: T2, full-length human GLP-1R (GenBank NM_002062) with an N-terminal FLAG tag on HEK-293T cells (human), P43220
T2 chain: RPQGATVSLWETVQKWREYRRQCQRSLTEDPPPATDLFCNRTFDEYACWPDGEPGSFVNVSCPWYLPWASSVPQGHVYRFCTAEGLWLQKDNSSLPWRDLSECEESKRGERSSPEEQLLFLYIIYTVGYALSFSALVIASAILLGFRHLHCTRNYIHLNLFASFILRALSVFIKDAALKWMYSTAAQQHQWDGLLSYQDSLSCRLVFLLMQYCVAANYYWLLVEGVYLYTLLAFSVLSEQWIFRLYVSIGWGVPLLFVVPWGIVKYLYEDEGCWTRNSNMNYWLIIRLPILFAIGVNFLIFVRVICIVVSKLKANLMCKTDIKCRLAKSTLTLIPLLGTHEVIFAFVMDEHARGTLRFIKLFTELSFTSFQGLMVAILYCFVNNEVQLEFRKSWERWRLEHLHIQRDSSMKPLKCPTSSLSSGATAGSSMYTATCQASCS
Test: cell-based or functional assay

**Q.** For B1, which GLP EC50 is on record?
**A.** > 1 µM

**Q.** B2 was tested. Which GLP EC50 did it give?
**A.** > 1 µM

**Q.** With B3 as the binder, how does the GLP EC50 read?
**A.** > 1 µM

**Q.** With B4 as the binder, how does the GLP EC50 read?
**A.** 0.151 µM

**Q.** B5 was tested. Which GLP EC50 did it give?
**A.** > 1 µM

**Q.** For B6, which GLP EC50 is on record?
**A.** 0.776 µM

**Q.** How did the GLP EC50 turn out when B7 was run?
**A.** > 1 µM

**Q.** With B8 as the binder, how does the GLP EC50 read?
**A.** > 1 µM

**Q.** B9 was tested. Which GLP EC50 did it give?
**A.** > 1 µM

**Q.** For B10, which GLP EC50 is on record?
**A.** > 1 µM

**Q.** Which GLP EC50 does the source give for B11 here?
**A.** > 1 µM

**Q.** Which GLP EC50 does the source give for B12 here?
**A.** > 1 µM

**Q.** With B13 as the binder, how does the GLP EC50 read?
**A.** 0.105 µM

**Q.** With B14 as the binder, how does the GLP EC50 read?
**A.** > 1 µM

**Q.** With B15 as the binder, how does the GLP EC50 read?
**A.** > 1 µM

**Q.** Which GLP EC50 does the source give for B16 here?
**A.** > 1 µM

**Q.** B17 was tested. Which GLP EC50 did it give?
**A.** > 1 µM

**Q.** For B18, which GLP EC50 is on record?
**A.** 0.0933 µM

**Q.** Which GLP EC50 does the source give for B19 here?
**A.** > 1 µM

**Q.** With B20 as the binder, how does the GLP EC50 read?
**A.** 0.0741 µM

**Q.** B21 was tested. Which GLP EC50 did it give?
**A.** > 1 µM

**Q.** For B22, which GLP EC50 is on record?
**A.** > 1 µM

**Q.** How did the GLP EC50 turn out when B23 was run?
**A.** > 1 µM

**Q.** How did the GLP EC50 turn out when B24 was run?
**A.** 0.0021 µM

**Q.** How did the GLP EC50 turn out when B25 was run?
**A.** > 1 µM

**Q.** For B26, which GLP EC50 is on record?
**A.** 0.794 µM

**Q.** With B27 as the binder, how does the GLP EC50 read?
**A.** > 1 µM

**Q.** B28 was tested. Which GLP EC50 did it give?
**A.** > 1 µM
